Source: US20230285523A1, “USE OF ELAFIN IN THE TREATMENT OF COVID-19” (priority 2021, published 2023)
No end group written: not given here.

How the values were obtained:
[1] = rats, cited from earlier work
[2] = Phase I clinical study, single intravenous doses; format: in vivo; conditions: single intravenous doses of 20 to 400 mg
[3] = Two clinical Phase II studies, intravenous doses; format: in vivo; conditions: intravenous doses of 200 mg
[4] = One phase I and two phase II randomized double-blind placebo-controlled clinical trials in a surgery program; format: in vivo
From the text: The clinical trials in the surgery development program established an intravenous single dosing scheme with perioperative administration via infusion.

[5] = test system: transcription factors AP-1 and NF-κB; conditions: U937 cells; cited from earlier work
20 S proteasome = conditions: cited from earlier work
[6] = test system: MCP-1 (macrophage chemoattractant protein-1; CCL2); conditions: U937 cells, LPS; cited from earlier work
[7] = after heart transplantation, myocardial infarction, skeletal muscle ischemia; cited from earlier work
[8] = in vivo; cited from earlier work
[9] = after esophageal cancer surgery

Row | Substance | accumulation in other organs, including the brain ([1]; 24 h p.i.) | radioactivity in the dissected kidney ([1]; 24 h p.i.) [%ID/g] | terminal elimination half-life in blood ([1]; bolus intravenous injection, blood) [h] | maximum accumulation in the kidney ([1]; kidney, 5 min post injection, SPECT) | share of detected radioactivity in the kidney identified as not metabolized ([1]; kidney, 24 h p.i.) [%] | tolerability [2] | tolerability [3] | kidney, liver and heart organ damages [4, 9] | organ protective effect (length of ICU stay) [4, 9] | tolerability of intravenous application ([4]; one phase I and two phase II trials, surgery program) | safety concerns ([4]; surgery program clinical trials) | LPS-induced activation of AP-1 and NF-κB [5] | inhibition of peptidase activities associated with the 20 S proteasome (20 S proteasome) | production of MCP-1 [6] | reperfusion injury [7] | ventilator induced injury [8]
1 | 99mTc-elafin: 99mTc-labeled elafin used for SPECT pharmacokinetics in rats (AQEPVKGPVSTKPGSCPIILIRCAMLNPPNRCLKDTDCPGIKKCCEGSCGMACFVPQ; ends and bridges not checked; also: 99mTc label; UniProt P19957 61-117, looked up) | no accumulation | 4.98±1.24 | 3.33 | 8.5%±0.1% | 30 |  |  |  |  |  |  |  |  |  |  | 
2 | Tiprelestat: INN name of elafin; recombinant human protein of 57 amino acids, about 6 kDa, inhibitor of elastase and proteinase 3 (AQEPVKGPVSTKPGSCPIILIRCAMLNPPNRCLKDTDCPGIKKCCEGSCGMACFVPQ; listed as Homo sapiens) |  |  |  |  |  | well tolerated | well tolerated | trend towards lower | organ protective effect was confirmed | well tolerated | No major safety concerns were observed | inhibited | no inhibition | inhibition of the production | suppresses reperfusion injury | able to reduce
